# Experimental data from patent publication US20030099654.
# B1: mfgl2 fusion protein (murine fgl2 with six histidine residues followed by an enterokinase site at the N-terminus) (protein)
# chain: VEEHNLTEGLEDASAQAACPARLEGSGRCEGSQCPFQLTLPTLTIQLPRQLGSMEEVLKEVRTLKEAVDSLKKSCQDCKLQADDHRDPGGNGGNGAETAEDSRVQELESQVNKLSSELKNAKDQIQGLQGRLETLHLVNMNNIENYVDNKVANLTVVVNSLDGKCSKCPSQEHMQSQPVQHLIYKDCSDHYVLGRRSSGAYRVTPDHRNSSFEVYCDMETMGGGWTVLQARLDGSTNFTREWKDYKAGFGNLEREFWLGNDKIHLLTKSKEMILRIDLEDFNGLTLYALYDQFYVANEFLKYRLHIGNYNGTAGDALRFSRHYNHDLRFFTTPDRDNDRYPSGNCGLYYSSGWWFDSCLSANLNGKYYHQKYKGVRNGIFWGTWPGINQAQPGGYKSSFKQAKMMIRPKNFKP
# Legend:
# [1] = tested on: 125I-prothrombin
# [2] = target: 125I-prothrombin; remark: listed apart in the source
Molecule,"prothrombin cleavage assay (125I-prothrombin, 10% SDS-PAGE, autoradiography); positive control [1]",one-stage clotting assay (PCA) in coagulation factor-deficient human plasmas [2],"prothrombin cleavage assay (125I-prothrombin, 10% SDS-PAGE, autoradiography); purified mfgl2 fusion protein [2]"
Human Factor Xa,Addition of human factor X in the presence of calcium and factor V produced cleavage products corresponding to known derivatives of prothrombin,,
B1,,The PCA expressed by recombinant virus infected cells was independent of all factors except 11 (prothrombin),incubation of 1251-prothrombin with uninfected High 5 cell homogenates or purified protein exhibited no prothrombin cleavage
